This is an account of results in the Human Domainome abundance scans (Beltran et al. 2025).

± gives the uncertainty stated by the source.

To fix the notation:
B1: Intersectin-1, residues 909 to 971; numbered along this chain, Q15811 (parent)
chain: QGEKVEGLQAQALYPWRAKKDNHLNFNKNDVITVLEQQDMWWFGEVQGQKGWFPKSYVKLISG

This series covers variants of B1. Description: abundance fitness (aPCA) (normalised: wild type 0, dead -1); higher = more abundant; growth selection in yeast, the domain comes from the species named. The settings on record: Homo sapiens.
As to QGEKVEGLQAGALYPWRAKKDNHLNFNKNDVITVLEQQDMWWFGEVQGQKGWFPKSYVKLISG [Q11G], the abundance fitness was -0.498 ± 0.093.
For QGEKVEGLQAEALYPWRAKKDNHLNFNKNDVITVLEQQDMWWFGEVQGQKGWFPKSYVKLISG [Q11E], the abundance fitness was -0.33 ± 0.13.
Consider QGEKVEGLQAKALYPWRAKKDNHLNFNKNDVITVLEQQDMWWFGEVQGQKGWFPKSYVKLISG [Q11K], for which the abundance fitness was -0.142 ± 0.12.
With QGEKVEGLQAQTLYPWRAKKDNHLNFNKNDVITVLEQQDMWWFGEVQGQKGWFPKSYVKLISG [A12T], the abundance fitness was -0.841 ± 0.32.
Consider QGEKVEGLQAQWLYPWRAKKDNHLNFNKNDVITVLEQQDMWWFGEVQGQKGWFPKSYVKLISG [A12W], for which the abundance fitness was -1.02 ± 0.44.
For the variant QGEKVEGLQAQRLYPWRAKKDNHLNFNKNDVITVLEQQDMWWFGEVQGQKGWFPKSYVKLISG [A12R], the abundance fitness was -0.997 ± 0.21.
With QGEKVEGLQAQCLYPWRAKKDNHLNFNKNDVITVLEQQDMWWFGEVQGQKGWFPKSYVKLISG [A12C] the figure was -0.474 ± 0.21; with QGEKVEGLQAQKLYPWRAKKDNHLNFNKNDVITVLEQQDMWWFGEVQGQKGWFPKSYVKLISG [A12K], -0.773 ± 0.48; with QGEKVEGLQAQSLYPWRAKKDNHLNFNKNDVITVLEQQDMWWFGEVQGQKGWFPKSYVKLISG [A12S], -0.577 ± 0.2.
For QGEKVEGLQAQGLYPWRAKKDNHLNFNKNDVITVLEQQDMWWFGEVQGQKGWFPKSYVKLISG [A12G] the value was -0.404 ± 0.07.
Consider QGEKVEGLQLQALYPWRAKKDNHLNFNKNDVITVLEQQDMWWFGEVQGQKGWFPKSYVKLISG [A10L], for which the abundance fitness is -0.272 ± 0.15.
QGEKVEGLQCQALYPWRAKKDNHLNFNKNDVITVLEQQDMWWFGEVQGQKGWFPKSYVKLISG [A10C]: the abundance fitness was -0.174 ± 0.36.
In the case of QGEKVEGLQVQALYPWRAKKDNHLNFNKNDVITVLEQQDMWWFGEVQGQKGWFPKSYVKLISG [A10V], the abundance fitness was 0.095 ± 0.093.
In the case of QGEKVEGLQSQALYPWRAKKDNHLNFNKNDVITVLEQQDMWWFGEVQGQKGWFPKSYVKLISG [A10S], the abundance fitness is -0.506 ± 0.12.
With QGEKVEGLQWQALYPWRAKKDNHLNFNKNDVITVLEQQDMWWFGEVQGQKGWFPKSYVKLISG [A10W] the figure was -0.183 ± 0.14.
Consider QGEKVEGLQRQALYPWRAKKDNHLNFNKNDVITVLEQQDMWWFGEVQGQKGWFPKSYVKLISG [A10R], for which the abundance fitness is -0.807 ± 0.17.
Consider QGEKVEGLQYQALYPWRAKKDNHLNFNKNDVITVLEQQDMWWFGEVQGQKGWFPKSYVKLISG [A10Y], for which the abundance fitness turned out to be 0.003 ± 0.24.
With QGEKVEGLQEQALYPWRAKKDNHLNFNKNDVITVLEQQDMWWFGEVQGQKGWFPKSYVKLISG [A10E], the abundance fitness was -0.821 ± 0.29.
As for QGEKVEGLQKQALYPWRAKKDNHLNFNKNDVITVLEQQDMWWFGEVQGQKGWFPKSYVKLISG [A10K], the abundance fitness is -0.152 ± 0.16.
QGEKVEGLQMQALYPWRAKKDNHLNFNKNDVITVLEQQDMWWFGEVQGQKGWFPKSYVKLISG [A10M]: the abundance fitness is -0.223 ± 0.15.
QGEKVEGLQTQALYPWRAKKDNHLNFNKNDVITVLEQQDMWWFGEVQGQKGWFPKSYVKLISG [A10T]: the abundance fitness was -0.746 ± 0.24.
Consider QGEKVEGLQGQALYPWRAKKDNHLNFNKNDVITVLEQQDMWWFGEVQGQKGWFPKSYVKLISG [A10G], for which the abundance fitness is -0.212 ± 0.07.
For QGEKVEGLQAQALYGWRAKKDNHLNFNKNDVITVLEQQDMWWFGEVQGQKGWFPKSYVKLISG [P15G], the abundance fitness came to 0.115 ± 0.071.
With QGEKVEGLQAQALYEWRAKKDNHLNFNKNDVITVLEQQDMWWFGEVQGQKGWFPKSYVKLISG [P15E] the figure was 0.054 ± 0.12; with QGEKVEGLQAQALYCWRAKKDNHLNFNKNDVITVLEQQDMWWFGEVQGQKGWFPKSYVKLISG [P15C], -0.059 ± 0.18; with QGEKVEGLQAQALYFWRAKKDNHLNFNKNDVITVLEQQDMWWFGEVQGQKGWFPKSYVKLISG [P15F], -0.224 ± 0.32.
As to QGEKVEGLQAQALYAWRAKKDNHLNFNKNDVITVLEQQDMWWFGEVQGQKGWFPKSYVKLISG [P15A], the abundance fitness is 0.017 ± 0.11.
On to QGEKVEGLQAQALYDWRAKKDNHLNFNKNDVITVLEQQDMWWFGEVQGQKGWFPKSYVKLISG [P15D], for which the abundance fitness was -0.156 ± 0.17.
Regarding QGEKVEGLLAQALYPWRAKKDNHLNFNKNDVITVLEQQDMWWFGEVQGQKGWFPKSYVKLISG [Q9L], the abundance fitness is -0.133 ± 0.12.
Turning to QGEKVEGLFAQALYPWRAKKDNHLNFNKNDVITVLEQQDMWWFGEVQGQKGWFPKSYVKLISG [Q9F], the abundance fitness was -0.159 ± 0.2.
Take QGEKVEGLIAQALYPWRAKKDNHLNFNKNDVITVLEQQDMWWFGEVQGQKGWFPKSYVKLISG [Q9I]: the abundance fitness was -0.172 ± 0.21.
In the case of QGEKVEGLHAQALYPWRAKKDNHLNFNKNDVITVLEQQDMWWFGEVQGQKGWFPKSYVKLISG [Q9H], the abundance fitness stood at 0.011 ± 0.27.
QGEKVEGLNAQALYPWRAKKDNHLNFNKNDVITVLEQQDMWWFGEVQGQKGWFPKSYVKLISG [Q9N]: the abundance fitness was found to be 0.012 ± 0.28.
For QGEKVEGLEAQALYPWRAKKDNHLNFNKNDVITVLEQQDMWWFGEVQGQKGWFPKSYVKLISG [Q9E] the value was 0.008 ± 0.12; for QGEKVEGLKAQALYPWRAKKDNHLNFNKNDVITVLEQQDMWWFGEVQGQKGWFPKSYVKLISG [Q9K], -0.015 ± 0.14; for QGEKVEGLMAQALYPWRAKKDNHLNFNKNDVITVLEQQDMWWFGEVQGQKGWFPKSYVKLISG [Q9M], 0.095 ± 0.17.
Take QGEKVEGLYAQALYPWRAKKDNHLNFNKNDVITVLEQQDMWWFGEVQGQKGWFPKSYVKLISG [Q9Y]: the abundance fitness is -0.047 ± 0.18.
For the variant QGEKVEGLTAQALYPWRAKKDNHLNFNKNDVITVLEQQDMWWFGEVQGQKGWFPKSYVKLISG [Q9T], the abundance fitness was -0.076 ± 0.14.
On to QGEKVEGLSAQALYPWRAKKDNHLNFNKNDVITVLEQQDMWWFGEVQGQKGWFPKSYVKLISG [Q9S], for which the abundance fitness was -0.083 ± 0.098.
For QGEKVEGLPAQALYPWRAKKDNHLNFNKNDVITVLEQQDMWWFGEVQGQKGWFPKSYVKLISG [Q9P] the value was -0.17 ± 0.2; for QGEKVEGLVAQALYPWRAKKDNHLNFNKNDVITVLEQQDMWWFGEVQGQKGWFPKSYVKLISG [Q9V], -0.093 ± 0.095.
Regarding QGEKVEGLWAQALYPWRAKKDNHLNFNKNDVITVLEQQDMWWFGEVQGQKGWFPKSYVKLISG [Q9W], the abundance fitness is -0.109 ± 0.097.
For QGEKVEGLGAQALYPWRAKKDNHLNFNKNDVITVLEQQDMWWFGEVQGQKGWFPKSYVKLISG [Q9G] the value was -0.331 ± 0.071.
